Tests used:
[1] = test system: E0771, B16F10, or LLC1 cancer cells; test: Tumoral immune cell analysis by flow cytometry; type: in vivo, C57BL/6 mice; conditions: 11.6 μg intratumorally once/day for 5 days, day 6
Procedure: E0771, B16F10, or LLC1 cancer cells were injected into C57BL/6 mice. Once tumors reached ˜100 mm^3, ELANE (11.6 μg) or PMSF-ELANE (11.6 μg) were delivered intratumorally once/day for 5 days. Tumors were isolated on day 6 and digested for immune cell analysis by flow cytometry. CD45+ cells are the total immune cells; macrophages (Mac) are defined as CD45+CD11b+CD11c^lowMHCII^low, neutrophils (Neu) are defined as CD45+CD11b+Ly6G+, dendritic cells (DC) are defined as CD45+CD11b+CD11c^highMHCII^high, B cells (b) are defined as CD45+B220+, NK cells (NK) are defined as CD45+NK1.1+CD16+, CD4+ T cells (CD4T) are defined as CD3+CD4+CD8−, CD8+ T cells (CD8T) are defined as CD3+CD8+CD4−, CD8 effector T cells (CD8Teff) are defined as CD3+CD8+CD4−CD62L−CD44+. *, p<0.05, Student's t-test. (FIG. 17)

Cancer cells = test: Killing program signaling in cancer cells (ERK, NFKB, JNK, ROS, H2AX, CASP3, PARP); type: cell-based, Human and mouse; conditions: 50 nM
Procedure: (FIG. 10A) Cancer cells were treated with ELANE (50 nM) for 4 hrs, and phosphorylated and total ERK, NFKB, and JNK were quantified by western blotting. Immunoblots for E0771 cancer cells are shown as an example. (FIG. 10B) Cancer cells were treated with various doses of ELANE for 1 hr and mitochondrial ROS was measured by flow cytometry using CM-H2DCFDA dye. (FIG. 10C) Cancer cells were treated with ELANE (50 nM) and DNA damage was assessed by immunoblotting for phospho-(γH2AX) and total H2AX. Immunoblots for A549 cancer cells are shown as an example. (FIG. 10D) Cells were treated with ELANE (50 nM) for 8 hrs, and full length and cleaved CASP3 (c-CASP3) and cleaved PARP (c-PARP) were quantified by immunoblotting. Immunoblots for LLC1 cancer cells are shown as an example. *, p<0.05, Student's t-test.
ELANE induces a robust killing program in a variety of cancer cells. Human and mouse cancer cells were treated with ELANE and signaling pathways associated with cancer cell death were assessed. Cells were treated with ELANE (50 nM) for 4 hrs, and phosphorylated and total ERK, NFKB, and JNK were quantified by western blotting. Cells were treated with various doses of ELANE for 1 hr and mitochondrial ROS was measured by flow cytometry using CM-H2DCFDA dye. Cells were treated with ELANE (50 nM) and DNA damage was assessed by western blot for phospho-(γH2AX) and total H2AX. […]

MDA-MB-231 cells = test: Cancer cell killing, Calcein AM staining; type: cell-based, human

B1: neutrophil elastase (protein, listed as Homo sapiens)
chain: MTLGRRLACLFLACVLPALLLGGTALASEIVGGRRARPHAWPFMVSLQLRGGHFCGATLIAPNFVMSAAHCVANVNVRAVRVVLGAHNLSRREPTRQVFAVQRIFENGYDPVNLLNDIVILQLNGSATINANVQVAQLPAQGRRLGNGVQCLAMGWGLLGRNRGIASVLQELNVTVVTSLCRRSNVCTLVRGRQAGVCFGDSGSPLVCNGLIHGIASFVRGGCASGLYPDAFAPVAQFVNWIDSIIQRSEDNPCPHPRDPDPASRTH
notes: purified native ELANE
With B1 the tumoral immune cells [1] was “increases tumoral immune cells”, the “killing program in cancer cells” value (Cancer cells) was “induces a robust killing program in cancer cells” and the “cancer cell killing activity of purified protein” value (MDA-MB-231 cells; increasing doses, 5h) was “highest cancer cell killing activity”. The “toxicity to cancer cells, ELANE versus PPE” value (MDA-MB-231 cells; various doses, 6 h) was “equally toxic to cancer cells”.
